B1: CD207 (parent)
chain: MTVEKEAPDAHFTVDKQNISLWPR

Variants of: B1
Test: protein stability index of a GFP-peptide fusion (GPS, HEK-293T) (PSI 1-6); higher = more stable
Details: c terminus: a fixed tail appended
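Further: lentivirally expressed fusions sorted by FACS into six bins by GFP to DsRed ratio, PSI derived from sequencing read proportions per bin multiplied by bin number.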

Variant | protein stability index
MTVEKEAPDAHFSVDKQNISLWPR [T13S] | 3.8
MTVEKEAPDAHFKVDKQNISLWPR [T13K] | 3.61
MTVEKEAPDAHFPVDKQNISLWPR [T13P] | 3.19
MTVEKEAPDAHFCVDKQNISLWPR [T13C] | 3.2
MTVEKEAPDAHFMVDKQNISLWPR [T13M] | 3.12
MTVEKEAPDAHFGVDKQNISLWPR [T13G] | 3.04
MTVEKEAPDAHFTVDKLNISLWPR [Q17L] | 2.64
MTVEKEAPDAHFTVDKDNISLWPR [Q17D] | 3.73
MTVEKEAPDAHFTVDKWNISLWPR [Q17W] | 1.56
MTVEKEAPDAHFTVDKINISLWPR [Q17I] | 2.48
MTVEKEAPDAHFTVDKANISLWPR [Q17A] | 3.66
MTVEKEAPDAHFTVDKTNISLWPR [Q17T] | 3.14
MTVEKEAPDAHFTVDKHNISLWPR [Q17H] | 3.05
MTVEKEAPDAHFTVDKCNISLWPR [Q17C] | 2.8
MTVEKEAPDAHFTVDKSNISLWPR [Q17S] | 2.31
MTVEKEAPDAHFTVDKRNISLWPR [Q17R] | 2.76
MTVEKEAPDAHFTVDKGNISLWPR [Q17G] | 3.38
MTVEKEAPDAHFTVDKYNISLWPR [Q17Y] | 1.94
MTVEKEAPDAHFTVDKNNISLWPR [Q17N] | 2.97
MTVEKEAPDAHFTVDKFNISLWPR [Q17F] | 1.89
MTVEKEAPDAHFTVDKENISLWPR [Q17E] | 3.26
MTVEKEAPDAHFTVDKPNISLWPR [Q17P] | 3.21
MTVEKEAPDAHFTVDKMNISLWPR [Q17M] | 2.15
MTVEKEAPDAHFTVDKKNISLWPR [Q17K] | 3.36

Variant | protein stability index
MTVEKEAPDAHFTVDKVNISLWPR [Q17V] | 2.39
MTVEKEAPDAHFTVDKQNISYWPR [L21Y] | 3.39
MTVEKEAPDAHFTVDKQNISQWPR [L21Q] | 3.85
MTVEKEAPDAHFTVDKQNISDWPR [L21D] | 4.22
MTVEKEAPDAHFTVDKQNISPWPR [L21P] | 4.11
MTVEKEAPDAHFTVDKQNISCWPR [L21C] | 3.64
MTVEKEAPDAHFTVDKQNISHWPR [L21H] | 4.06
MTVEKEAPDAHFTVDKQNISSWPR [L21S] | 3.53
MTVEKEAPDAHFTVDKQNISWWPR [L21W] | 3.12
MTVEKEAPDAHFTVDKQNISNWPR [L21N] | 3.43
MTVEKEAPDAHFTVDKQNISKWPR [L21K] | 3.72
MTVEKEAPDAHFTVDKQNISIWPR [L21I] | 3.79
MTVEKEAPDAHFTVDKQNISRWPR [L21R] | 3.7
MTVEKEAPDAHFTVDKQNISMWPR [L21M] | 3.81
MTVEKEAPDAHFTVDKQNISTWPR [L21T] | 3.01
MTVEKEAPDAHFTVDKQNISFWPR [L21F] | 3.25
MTVEKEAPDAHFTVDKQNISVWPR [L21V] | 3.09
MTVEKEAPDAHFTVDYQNISLWPR [K16Y] | 2.83
MTVEKEAPDAHFTVDIQNISLWPR [K16I] | 2.39
MTVEKEAPDAHFTVDMQNISLWPR [K16M] | 2.83
MTVEKEAPDAHFTVDFQNISLWPR [K16F] | 2.95
MTVEKEAPDAHFTVDNQNISLWPR [K16N] | 3.49
MTVEKEAPDAHFTVDVQNISLWPR [K16V] | 2.93
MTVEKEAPDAHFTVDEQNISLWPR [K16E] | 4.13

Variant | protein stability index
MTVEKEAPDAHFTVDRQNISLWPR [K16R] | 3.26
MTVEKEAPDAHFTVDGQNISLWPR [K16G] | 3.8
MTVEKEAPDAHFTVDDQNISLWPR [K16D] | 3.35
MTVEKEAPDAHFTVDPQNISLWPR [K16P] | 3.26
MTVEKEAPDAHFTVDCQNISLWPR [K16C] | 3.76
MTVEKEAPDAHFTVDHQNISLWPR [K16H] | 3.53
MTVEKEAPDAHFTVDAQNISLWPR [K16A] | 3.52
MTVEKEAPDAHFTVDWQNISLWPR [K16W] | 2
MTVEKEAPDAHFTVDTQNISLWPR [K16T] | 3.18
MTVEKEAPDAHFTVDLQNISLWPR [K16L] | 2.62
MTVEKEAPDAHFTVDQQNISLWPR [K16Q] | 3.01
MTVEKEAPDAHFTVDSQNISLWPR [K16S] | 3.79
MTVEKEAPDAHFTVKKQNISLWPR [D15K] | 2.81
MTVEKEAPDAHFTVYKQNISLWPR [D15Y] | 1.98
MTVEKEAPDAHFTVCKQNISLWPR [D15C] | 3.35
MTVEKEAPDAHFTVIKQNISLWPR [D15I] | 2.31
MTVEKEAPDAHFTVRKQNISLWPR [D15R] | 3.06
MTVEKEAPDAHFTVFKQNISLWPR [D15F] | 2.06
MTVEKEAPDAHFTVQKQNISLWPR [D15Q] | 3.17
MTVEKEAPDAHFTVEKQNISLWPR [D15E] | 3.51
MTVEKEAPDAHFTVPKQNISLWPR [D15P] | 2.74
MTVEKEAPDAHFTVAKQNISLWPR [D15A] | 3.35
MTVEKEAPDAHFTVHKQNISLWPR [D15H] | 2.48
MTVEKEAPDAHFTVSKQNISLWPR [D15S] | 3.61

Variant | protein stability index
MTVEKEAPDAHFTVGKQNISLWPR [D15G] | 2.92
MTVEKEAPDAHFTVNKQNISLWPR [D15N] | 2.54
MTVEKEAPDAHFTVMKQNISLWPR [D15M] | 2.67
MTVEKEAPDAHFTVTKQNISLWPR [D15T] | 2.74
MTVEKEAPDAHFTVDKQNCSLWPR [I19C] | 3.76
MTVEKEAPDAHFTVDKQNKSLWPR [I19K] | 4.35
MTVEKEAPDAHFTVDKQNPSLWPR [I19P] | 4
MTVEKEAPDAHFTVDKQNTSLWPR [I19T] | 3.79
MTVEKEAPDAHFTVDKQNSSLWPR [I19S] | 3.45
MTVEKEAPDAHFTVDKQNASLWPR [I19A] | 4.25
MTVEKEAPDAHFTVDKQNDSLWPR [I19D] | 4.22
MTVEKEAPDAHFTVDKQNESLWPR [I19E] | 4.47
MTVEKEAPDAHFTVDKQNRSLWPR [I19R] | 3.99
MTVEKEAPDAHFTVDKQNGSLWPR [I19G] | 3.13
MTVEKEAPDAHFTVDKQNFSLWPR [I19F] | 4.08
MTVEKEAPDAHFTVDKQNQSLWPR [I19Q] | 3.84
MTVEKEAPDAHFTVDKQNLSLWPR [I19L] | 3.35
MTVEKEAPDAHFTVDKQNYSLWPR [I19Y] | 3.41
MTVEKEAPDAHFTVDKQNVSLWPR [I19V] | 3.98
MTVEKEAPDAHFTVDKQNHSLWPR [I19H] | 4.29
MTVEKEAPDAHFTVDKQNNSLWPR [I19N] | 4.39
MTVEKEAPDAHFTVDKQNMSLWPR [I19M] | 3.67

Source: the supplement of paper PMC10567573
